Source: article PMC6258048
Read-outs that look alike come from different tables or passages of the source.

T1: Tcf3 B-HLH domain (E47);Ascl1 B-HLH domain (;, UniProt P15806-2;Q02067 ;, |)
T1 sequence 1: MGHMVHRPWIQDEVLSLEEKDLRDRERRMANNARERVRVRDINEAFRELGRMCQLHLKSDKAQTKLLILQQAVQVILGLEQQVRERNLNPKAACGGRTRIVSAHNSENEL
T1 sequence 2: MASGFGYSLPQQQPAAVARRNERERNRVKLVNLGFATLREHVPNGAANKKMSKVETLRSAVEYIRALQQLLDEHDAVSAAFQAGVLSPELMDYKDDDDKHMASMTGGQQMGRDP

T2: Tcf3 B-HLH domain (E47) (UniProt P15806-2)
T2 sequence: T1 sequence 1

T3: Ascl1 B-HLH domain (UniProt Q02067)
T3 sequence: T1 sequence 2

B1: weak E-box CGCAA|ATG 28-mer 5caC(a)|5caC(b) (dsDNA)
DNA 1: CTGACCCATACGCAAATGTCTGACTGAC
DNA 2: GTCAGTCAGACATTTGCGTATGGGTCAG
modifications: 5caC at C11 of strand 1 and C17 of strand 2
B2: weak E-box CGCAA|ATG 28-mer C(a)|C(b) (dsDNA)
DNA 1: CTGACCCATACGCAAATGTCTGACTGAC
DNA 2: GTCAGTCAGACATTTGCGTATGGGTCAG
B3: CGCAG|GTG 28-mer 5caC(a)|5caC(b) (dsDNA)
DNA 1: CTGACCGATACGCAGGTGCCTGACTGAC
DNA 2: GTCAGTCAGGCACCTGCGTATCGGTCAG
modifications: 5caC at C11 of strand 1 and C17 of strand 2

Experiments:
Experiment in all cases: EMSA
[1] = biological target: T1, Tcf3 B-HLH domain (E47);Ascl1 B-HLH …
Tcf3 B-HLH domain (E47) = biological target: T2, Tcf3 B-HLH domain (E47)
[2] = biological target: Tcf12 B-HLH domain;Ascl1 B-HLH domain (;, UniProt Q61286;Q02067 ;, |)
[3] = biological target: Tcf4 B-HLH domain;Ascl1 B-HLH domain (;, UniProt Q60722;Q02067 ;, |)
[4] = biological target: T1, Tcf3 B-HLH domain (E47);Ascl1 B-HLH …; remark: listed apart in the source
Tcf12 B-HLH domain = Tcf12 B-HLH domain (UniProt Q61286)
Ascl1 B-HLH domain = biological target: T3, Ascl1 B-HLH domain
Tcf4 B-HLH domain = Tcf4 B-HLH domain (UniProt Q60722)

| Binder | binding signal [1] | binding signal (Tcf3 B-HLH domain (E47)) [fold binding vs N1] | binding signal [2] [fold binding vs N1] | binding signal [3] [fold binding vs N1] | binding signal [4] [fold binding vs N1] | binding signal (Tcf12 B-HLH domain) [fold binding vs N1] | binding signal (Ascl1 B-HLH domain) [fold binding vs N1] | binding signal (Tcf4 B-HLH domain) [fold binding vs N1] |
| --- | --- | --- | --- | --- | --- | --- | --- | --- |
| B1 | ~10 fold binding vs N8 |  |  |  |  |  |  |  |
| B2 | ~100 fold weaker than N1 |  |  |  |  |  |  |  |
| B3 |  | ~2 | ~10 | ~6 | ~10 | ~4 | ~6 | ~3 |
